Experiment [1] deals with T1, human DKK1 (human, UniProt O94907 32-266).
T1 construct: Analyte in BLI and the protein added in the reporter assay; also called hDKK1; Dickkopf-1
T1 sequence (looked up): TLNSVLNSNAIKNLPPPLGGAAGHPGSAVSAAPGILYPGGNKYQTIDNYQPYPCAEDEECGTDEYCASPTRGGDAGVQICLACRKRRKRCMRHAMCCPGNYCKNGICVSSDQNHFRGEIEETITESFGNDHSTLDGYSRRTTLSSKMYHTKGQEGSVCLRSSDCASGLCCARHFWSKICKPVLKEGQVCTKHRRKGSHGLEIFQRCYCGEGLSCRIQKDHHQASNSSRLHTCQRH
Nature of the experiment: BLI (Gator), antibody on anti-hFc biosensor, antigen as analyte, 1:1 global fit. Here is the method: (§1) Binding kinetics and affinities of anti-Sclerostin×anti-DKK1 and anti-Sclerostin×anti-RANKL bispecific antibodies were measured with Gator (Probe Life) bio-layer interferometry (BLI). Antibodies were immobilized on an anti-hFc biosensor, using a 5 μg/ml solution. Serial dilutions of sclerostin (from 1 μg/ml), DKK1 (from 2 μg/ml), or RANKL (from 4 μg/ml) by two folds in kinetics buffer (PBS, pH 7.4, 0.05% Tween-20, 0.2% BSA) were used as the analytes. Affinity (KD) and kinetic parameters (Kₒₙ and Koff) were calculated from a global fit (1:1) of the data using the Gator software.

The target in experiment [2] is T2, human Sclerostin (human, UniProt Q9BQB4 24-213).
T2 construct: Analyte of the BLI assays and the protein added in the reporter assays; also called hSclerostin; SOST
T2 sequence: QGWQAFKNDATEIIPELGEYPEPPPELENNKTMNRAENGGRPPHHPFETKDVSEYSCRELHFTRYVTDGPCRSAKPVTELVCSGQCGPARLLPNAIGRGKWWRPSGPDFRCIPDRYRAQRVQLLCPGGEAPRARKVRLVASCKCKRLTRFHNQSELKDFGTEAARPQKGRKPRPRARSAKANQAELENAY
The experiment is described as above. Here is the method:
as §1

In experiment [3] the target is T1, human DKK1. Nature of the experiment: cell-based or functional assay.
Experiment [4] addresses T2, human Sclerostin. Put plainly: cell-based or functional assay.
Experiment [5] deals with T2, human Sclerostin. Nature of the experiment: BLI (Gator), antibody on anti-hFc biosensor, antigen as analyte; koff at LOD, KD estimated. Here is the method: as §1
Experiment [6] concerns the target T1, human DKK1. The experiment is described as above. Here is the method: as §1
Experiment [7] deals with T2, human Sclerostin. Nature of the experiment: cell-based or functional assay. This is another data set of the same source.
Experiment [8] deals with T3, cynomolgus monkey Sclerostin (cynomolgus monkey, UniProt Q9BG78 24-213 (Chlorocebus aethiops entry)).
T3 chain: T2 sequence with E26D, P70Q, E129A, T161P, S178G
Nature of the experiment: BLI (Gator), antibody on anti-hFc biosensor, Sclerostin as analyte, 1:1 global fit. Here is the method: (§2) The binding affinity of humanized anti-Sclerostin antibodies to human and cynomolgus monkey Sclerostin were determined with bio-layer interferometry using a Gator instrument (Probe Life). Antibodies were immobilized on an anti-hFc biosensor, using a […]. Serial dilutions of human Sclerostin and cynomolgus monkey Sclerostin from 4 μg/ml by two folds in kinetics buffer (PBS, pH 7.4, 0.05% Tween-20, 0.2% BSA, 10 μM biotin) were used as the analytes. Affinity (KD) and kinetic parameters (Kₒₙ and Koff) were calculated from a global fit (1:1) of the data using the Gator software.

The target of experiment [9] is T2, human Sclerostin. Described as above. Here is the method:
as §2

Experiment [10] addresses T1, human DKK1. Put plainly: BLI (Gator), hAb-2 on anti-hFc probe already holding hSclerostin, hDKK1 as second analyte. Here is the method:
The bsAb constructs (5 μg/ml) were captured to the anti-hFc HFC probe, then sequentially adding hSclerostin (2 μg/ml) and hDKK1 (2 μg/ml) in kinetics buffer (PBS, pH 7.4, 0.05% Tween-20, 0.2% BSA).

This is an account of results in patent US20230312755A1 (ANGITIA, published 2023).

Numbering of substitutions follows the chain as printed.

B1: BAP0037 (bispecific antibody, human IgG4 S228P, kappa)
heavy: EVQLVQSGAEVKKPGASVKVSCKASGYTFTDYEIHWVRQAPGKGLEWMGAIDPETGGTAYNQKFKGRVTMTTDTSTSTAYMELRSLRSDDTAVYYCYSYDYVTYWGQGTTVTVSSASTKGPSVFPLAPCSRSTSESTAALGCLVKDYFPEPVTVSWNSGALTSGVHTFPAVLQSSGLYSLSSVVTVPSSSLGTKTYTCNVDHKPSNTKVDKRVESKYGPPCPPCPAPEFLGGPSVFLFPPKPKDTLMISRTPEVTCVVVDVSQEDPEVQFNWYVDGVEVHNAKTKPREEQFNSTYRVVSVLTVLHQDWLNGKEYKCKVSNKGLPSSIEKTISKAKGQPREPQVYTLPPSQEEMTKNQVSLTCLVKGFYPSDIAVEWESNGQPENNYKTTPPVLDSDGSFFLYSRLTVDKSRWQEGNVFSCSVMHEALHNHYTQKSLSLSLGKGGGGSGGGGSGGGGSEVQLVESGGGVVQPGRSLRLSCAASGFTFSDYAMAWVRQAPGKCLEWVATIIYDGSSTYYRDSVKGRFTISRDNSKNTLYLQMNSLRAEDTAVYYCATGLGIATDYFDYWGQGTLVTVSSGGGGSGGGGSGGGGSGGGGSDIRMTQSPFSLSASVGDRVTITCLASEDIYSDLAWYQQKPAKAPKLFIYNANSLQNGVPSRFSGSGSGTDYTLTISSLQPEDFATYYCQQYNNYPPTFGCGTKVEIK
light: DIQMTQSPSSLSASVGDRVTITCRSSQSLLYSDGRTYLNWYQQKPGKSPKRLIYLVSKLDSGVPDRFSGSGSGTDFTLTISSLQPEDFATYYCWQGTHLPHTFGGGTKVEIKRTVAAPSVFIFPPSDEQLKSGTASVVCLLNNFYPREAKVQWKVDNALQSGNSQESVTEQDSKDSTYSLSSTLTLSKADYEKHKVYACEVTHQGLSSPVTKSFNRGEC
notes: Anti-DKK1 scFv (VH-VL) fused to the C-terminus of the heavy chains of the anti-Sclerostin full length antibody (hAb-2)
One may read the Kd as the free concentration of one partner at which half of the binding sites on the other are occupied at equilibrium, for simple one-to-one binding. The koff is the first-order rate constant of dissociation. As a reminder, the kon is the second-order rate constant of association. In the experiment with human DKK1 [1], B1 gave a Kd of 1.01 nM, a koff of 0.000301 s⁻¹ and a kon of 297000 M⁻¹ s⁻¹. Further, in the experiment with human Sclerostin [2], the kon was 1.88e+06 M⁻¹ s⁻¹. In the experiment with human DKK1 [3], the “EC50, DKK1 neutralization activity in HEK293/TCF/LEF/Wnt1 reporter gene assay” value was determined as 24.1 nM. For the same molecule, the “EC50, Sclerostin neutralization activity in HEK293/TCF/LEF/Wnt1 reporter gene assay” value with human Sclerostin [4] is 23.6 nM. Besides, the Kd with human Sclerostin [5] was ~0.01 nM.

B2: BAP0061 (bispecific antibody, human IgG4 S228P, kappa)
heavy 1: EVQLVQSGAEVKKPGASVKVSCKASGYTFTDYEIHWVRQAPGKGLEWMGAIDPETGGTAYNQKFKGRVTMTTDTSTSTAYMELRSLRSDDTAVYYCYSYDYVTYWGQGTTVTVSSASTKGPSVFPLAPCSRSTSESTAALGCLVKDYFPEPVTVSWNSGALTSGVHTFPAVLQSSGLYSLSSVVTVPSSSLGTKTYTCNVDHKPSNTKVDKRVESKYGPPCPPCPAPEFLGGPSVFLFPPKPKDTLMISRTPEVTCVVVDVSQEDPEVQFNWYVDGVEVHNAKTKPREEQFNSTYRVVSVLTVLHQDWLNGKEYKCKVSNKGLPSSIEKTISKAKGQPREPQVYTLPPSQEEMTKNQVSLSCAVKGFYPSDIAVEWESNGQPENNYKTTPPVLDSDGSFFLVSRLTVDKSRWQEGNVFSCSVMHEALHNRFTQKSLSLSLGK
light 1: B1 light
heavy 2: not shown
light 2: DIRMTQSPFSLSASVGDRVTITCLASEDIYSDLAWYQQKPAKAPKLFIYNANSLQNGVPSRFSGSGSGTDYTLTISSLQPEDFATYYCQQYNNYPPTFGGGTKVEIKRTVAAPSVFICPPSDEQLKSGTASVVCLLNNFYPREAKVQWKVDNALQSGNSQESVTEQDSKDSTYSLSSTLTLSKADYEKHKVYACEVTHQGLSSPVTKSFNRGES
notes: Asymmetric knob-into-hole full length antibody: first Fab (hAb-2) recognizes Sclerostin, second Fab (11H10) recognizes DKK1
As to B2, the kon with human DKK1 [1] is 330000 M⁻¹ s⁻¹; with human Sclerostin [2], 2.62e+06 M⁻¹ s⁻¹. The “EC50, DKK1 neutralization activity in HEK293/TCF/LEF/Wnt1 reporter gene assay” value in the experiment with human DKK1 [3] came out at 41.4 nM. The “EC50, Sclerostin neutralization activity in HEK293/TCF/LEF/Wnt1 reporter gene assay” value in the experiment with human Sclerostin [4] came out at 63.8 nM. Also, the Kd in the experiment with human DKK1 [6] and with human Sclerostin [5] was ~0.01 nM throughout.

B3: BAP0063 (bispecific antibody, human IgG4 S228P, kappa)
heavy 1: B2 heavy 1
light 1: B1 light
heavy 2: not shown
light 2: B2 light 2 with C118F, Q160C
notes: as for B2
For B3, the figures for the kon with human DKK1 [1] and with human Sclerostin [2] were 129000 M⁻¹ s⁻¹ and 2.59e+06 M⁻¹ s⁻¹, respectively. The “EC50, DKK1 neutralization activity in HEK293/TCF/LEF/Wnt1 reporter gene assay” value with human DKK1 [3] worked out at 44.7 nM. Further, the “EC50, Sclerostin neutralization activity in HEK293/TCF/LEF/Wnt1 reporter gene assay” value with human Sclerostin [4] was 65.4 nM. For the same molecule, the dissociation constant Kd with human DKK1 [6] and with human Sclerostin [5] was ~0.01 nM in each case.

B4: hAb-2 (antibody, V domains shown)
VH: EVQLVQSGAEVKKPGASVKVSCKASGYTFTDYEIHWVRQAPGKGLEWMGAIDPETGGTAYNQKFKGRVTMTTDTSTSTAYMELRSLRSDDTAVYYCYSYDYVTYWGQGTTVTVSS
VL: DIQMTQSPSSLSASVGDRVTITCRSSQSLLYSDGRTYLNWYQQKPGKSPKRLIYLVSKLDSGVPDRFSGSGSGTDFTLTISSLQPEDFATYYCWQGTHLPHTFGGGTKVEIK
notes: Humanized 93B1B7; also called humanized anti-Sclerostin antibody hAb-2
In the case of B4, the “EC50, Sclerostin-neutralisation activity in HEK293/TCF/LEF/Wnt1 cells (luciferase reporter)” value with human Sclerostin [7] was found to be 14.9 nM. Besides, in [8], binding was put at a Kd of 0.055 nM, the koff was 8.06e-05 s⁻¹ and the kon stood at 1.54e+06 M⁻¹ s⁻¹. In the experiment with human Sclerostin [9], binding was put at a Kd of 0.24 nM, the koff was found to be 0.0002 s⁻¹ and the kon is 780000 M⁻¹ s⁻¹. The binding result in the experiment with human DKK1 [10] is recorded as “no binding (tested: 2 µg/ml)”.
